Where two headings read alike, the source gives them in different places. Marks after values point to notes of the source that are not given here.
How the values were obtained:
[1] = test system: patients with severe, active RA; assay: Study 2 / Study 3 OLE (adalimumab monotherapy): FACIT-F fatigue; format: in vivo, human
Experimental: In addition to the SF-36 instrument, the Health Utilities Index Mark 3 (HUI3) and the Functional Assessment of Chronic Illness Therapy-Fatigue (FACIT-F) questionnaires were administered at baseline, 12 weeks, and the end of the study.
The HUI3 scale is 0-1, with “1” denoting perfect health and “0” denoting death. FACIT-F scores range from 0-52, with higher scores representing less fatigue. The SF-36 includes one multi-item scale that assesses eight different dimensions of health, including physical and psychosocial components. For each dimension a value of 0-100 is given, with higher numbers representing less impairment. Changes in HUI3 of ≧0.03, in FACIT-F of ≧4 and in SF-36 of ≧4.4 (physical subscales) and ≧3.1 (mental subscales) are considered clinically meaningful.
All patients studied had severe, active RA. Patients' fatigue was measured by the FACIT-F, which is validated for RA.
FACIT-F was administered at baseline, at 1 or 2 time points during the study, and at the end of the study. The questionnaire asked each patient the following “Below is a list of statements that other people with your illness have said are important. By circling one (1) number per line, please indicate how true each statement has been for you during the past 7 days.” The questions in the questionnaire used to determine the FACIT score included the following, where each patient indicated the appropriate number (0-4): I feel fatigued; I feel weak all over; I feel listless (“washed out”); I feel tired; I have trouble starting things because I am tired; I have trouble finishing things because I am tired; I have energy; I am able to do my usual activities; I need to sleep during the day; I am too tired to eat; I need help doing my usual activities; I am frustrated by being too tired to do the things I want to do; I have to limit my social activity because I am tired. FACIT-F scores range from 0-52, with higher scores representing less fatigue. FACIT-F changes of ≧4 are considered clinically meaningful.
Data were obtained from a health economics companion study to a pivotal trial of adalimumab, which rolled over into a long-term, open-label extension (OLE) study. […] Patients' fatigue was measured by the FACIT-F questionnaire. FACIT-F was administered at baseline, and at several time points during the study. FACIT-F scores range from 0-52, with higher scores representing less fatigue. Changes in FACIT-F scores of ≧4 were considered clinically meaningful.
In addition to clinical parameters, the SF-36 instrument, the Health Utilities Index Mark 3 (HUI3), and the Functional Assessment of Chronic Illness Therapy-Fatigue (FACIT-F) questionnaires were administered at baseline, and at weeks 12, 26, 50, 74, 98, 122, 146 and 170, respectively. The HUI3 scale ranges from 0-1, with “1” denoting perfect health and “0” denoting death. FACIT-F scores range from 0-52, with higher scores representing less fatigue. SF-36 scores range from 0-100 with higher scores indicating improvement in HRQoL. Changes in HUI3 scores of ≧0.03, 1 FACIT-F scores of ≧4, 2 and individual SF-36 domain scores of 5-103 are considered clinically meaningful.

[2] = test system: patients with moderate to severe rheumatoid arthritis; assay: Study C: HAQ; format: in vivo, human
Experimental: The Canadian Adalimumab Clinical Trial (Study C) was an open-label, multi-center, Phase IIIb study conducted in Canada. […] Efficacy and safety were assessed at baseline, 4, 8, and 12 weeks. Efficacy assessments included tender joint count (TJC 0-28), swollen joint count (SJC 0-28), Disease Activity Score 28 (DAS28), Health Assessment Questionnaire (HAQ), and EULAR response. This was a preliminary analysis of 236 patients. The sample size for each outcome variable is based on the data available at the time of the analysis. The data from this preliminary analysis were compared with the Week 12 data from Study A (N=2008).

[3] = test system: RA patients treated with adalimumab in clinical trials in North America and Europe
Experimental: The rate of TB was calculated for the period before screening was initiated (primarily Phase I trials) and the period after screening was implemented. The screening program consisted of a clinical interview, a tuberculin skin test, and, in most patients, a chest X-ray (CXR). The definition of PPD-positive depended on local country-specific guidelines. For those people who were PPD-positive, or for whom the investigator felt the risk of TB reactivation was high, INH was given for prophylaxis.
The methodology differed among protocols. For instance, in Europe and Australia, it was initially used CXR only, and in later studies, CXR and purified protein derivative skin test (PPD) were both used. By contrast, in US and Canada, CXR and PPD were both used.

[4] = US/Canada and Europe RA trials through December 2004

Substance: adalimumab: human anti-TNF mAb (HUMIRA, Abbott Laboratories), described in U.S. Pat. No. 6,090,382 as D2E7
- FACIT-F change from baseline ([1]; 12 weeks): 7.2
- mean FACIT-F change from baseline ([1]; week 26 (6 months), monotherapy): 8.5 b, c
- mean FACIT-F change from baseline ([1]; week 26 (6 months), monotherapy, listed as ada): 8.5
- mean FACIT-F change from baseline ([1]; week 50): 7.3 ^b
- mean FACIT-F change from baseline ([1]; week 98): 7.2 ^b
- mean FACIT-F change from baseline ([1]; week 146): 7.1 ^b
- mean FACIT-F change from baseline ([1]; week 170): 7.2 ^b
- improvement in HAQ score ([2]; 12 weeks): −0.55
- patients achieving HAQ<0.5 ([2]; 12 weeks): 28%
- HAQ (mean), change from baseline ([2]; Study C, 12 weeks, preliminary analysis): −0.55 (122)
- mean HAQ ([2]; week 12 (baseline 1.4)): 0.86
- TB cases: Culture positive [3, 4]: 62%
- TB cases: Extrapulmonary [3, 4]: 65%
- TB: Total Cases [3, 4]: 34
- TB cases: Median months from treatment to diagnosis (range) ([3]; US/Canada and Europe RA trials through December 2004, range 1-54): 7.2 months (1-54)
- cases of TB ([3]; after screening): 27 cases
- rate of TB ([3]; after screening, 14,010 pt-yrs): 0.0019 /pt-yr
- rate of TB ([3]; after screening, Europe): 0.0027
- rate of TB ([3]; after screening, North America): 0.0008
- cases of TB ([3]; before screening): 7 cases
- rate of TB ([3]; before screening, 534 pt-yrs): 0.013 /pt-yrs
- reduction in the rate of developing TB with screening ([3]; human, in vivo): 85%
- TB cases: Outcome Resolved ([3]; of 34 cases, one patient died of unrelated causes): 32**
- median time to the development of TB ([3]; range 14-1636): 167 days

From patent US20120171123A1, “USES AND COMPOSITIONS FOR TREATMENT OF RHEUMATOID ARTHRITIS” (priority 2006, published 2012)
